From the supplement of paper PMC9112550, “Optimization of the antimicrobial peptide Bac7 by deep mutational scanning” (BMC Biology, 2022)

Tested on: Escherichia coli TOP10
Test: shrunken log2 fold change of peptide-encoding DNA abundance (4.5 h post-induction vs induction); higher = less antimicrobial activity (less host growth inhibition)
Details: time post-induction: 4.5 h; library: site-saturation at positions 5, 18, 19, 20
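Note: peptides expressed intracellularly from a pBAD plasmid library in pooled LB shake-flask culture, induced with 0.3% L-arabinose, DNA abundance read by NGS, three biological replicates, DESeq2 with apeglm shrinkage.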

Sequence: RRIRHRPPRLPRPRPRPCDTPRP
- shrunken log2 fold change: -0.214

Sequence: RRIRYRPPRLPRPRPRPVTNPRP
- shrunken log2 fold change: -0.015

Sequence: RRIRMRPPRLPRPRPRPYNHPRP
- shrunken log2 fold change: -0.491

Sequence: RRIRCRPPRLPRPRPRPSRVPRP
- shrunken log2 fold change: 0.247

Sequence: RRIRDRPPRLPRPRPRPTDKPRP
- shrunken log2 fold change: -0.118

Sequence: RRIRWRPPRLPRPRPRPHPKPRP
- shrunken log2 fold change: 0.408

Sequence: RRIRARPPRLPRPRPRPEHDPRP
- shrunken log2 fold change: -0.0905

Sequence: RRIRDRPPRLPRPRPRPHVEPRP
- shrunken log2 fold change: -0.109

Sequence: RRIRFRPPRLPRPRPRPQESPRP
- shrunken log2 fold change: 0.124

Sequence: RRIRSRPPRLPRPRPRPAQSPRP
- shrunken log2 fold change: 0.234

Sequence: RRIRERPPRLPRPRPRPLHRPRP
- shrunken log2 fold change: -0.0862

Sequence: RRIRQRPPRLPRPRPRPPTDPRP
- shrunken log2 fold change: 0.0902

Sequence: RRIRPRPPRLPRPRPRPKGWPRP
- shrunken log2 fold change: 1.22

Sequence: RRIRARPPRLPRPRPRPEGIPRP
- shrunken log2 fold change: 0.0659

Sequence: RRIRSRPPRLPRPRPRPKYWPRP
- shrunken log2 fold change: -0.166

Sequence: RRIRWRPPRLPRPRPRPIVHPRP
- shrunken log2 fold change: -0.175

Sequence: RRIRHRPPRLPRPRPRPFNFPRP
- shrunken log2 fold change: -0.648

Sequence: RRIRWRPPRLPRPRPRPPIVPRP
- shrunken log2 fold change: 0.19

Sequence: RRIRMRPPRLPRPRPRPNLTPRP
- shrunken log2 fold change: 0.0283

Sequence: RRIRFRPPRLPRPRPRPWCQPRP
- shrunken log2 fold change: -0.0361

Sequence: RRIRIRPPRLPRPRPRPDEGPRP
- shrunken log2 fold change: -0.22

Sequence: RRIRCRPPRLPRPRPRPREEPRP
- shrunken log2 fold change: 1.43

Sequence: RRIRIRPPRLPRPRPRPDRLPRP
- shrunken log2 fold change: -0.453

Sequence: RRIRQRPPRLPRPRPRPCCTPRP
- shrunken log2 fold change: -0.137

Sequence: RRIRTRPPRLPRPRPRPDSSPRP
- shrunken log2 fold change: -0.00751

Sequence: RRIRFRPPRLPRPRPRPLRQPRP
- shrunken log2 fold change: 0.0138

Sequence: RRIRMRPPRLPRPRPRPFYHPRP
- shrunken log2 fold change: -0.537

Sequence: RRIRHRPPRLPRPRPRPQCAPRP
- shrunken log2 fold change: 0.191

Sequence: RRIRFRPPRLPRPRPRPNFTPRP
- shrunken log2 fold change: -0.0305

Sequence: RRIRYRPPRLPRPRPRPDHDPRP
- shrunken log2 fold change: -0.133

Sequence: RRIRDRPPRLPRPRPRPKILPRP
- shrunken log2 fold change: 0.042

Sequence: RRIRVRPPRLPRPRPRPGIYPRP
- shrunken log2 fold change: -0.623

Sequence: RRIRMRPPRLPRPRPRPQCQPRP
- shrunken log2 fold change: -0.0148

Sequence: RRIRHRPPRLPRPRPRPHNYPRP
- shrunken log2 fold change: -0.296

Sequence: RRIRTRPPRLPRPRPRPDGPPRP
- shrunken log2 fold change: 0.126

Sequence: RRIRKRPPRLPRPRPRPYLSPRP
- shrunken log2 fold change: -0.119

Sequence: RRIRWRPPRLPRPRPRPPQVPRP
- shrunken log2 fold change: 0.35

Sequence: RRIRHRPPRLPRPRPRPLCSPRP
- shrunken log2 fold change: -0.285

Sequence: RRIRPRPPRLPRPRPRPLDGPRP
- shrunken log2 fold change: 0.0208

Sequence: RRIRLRPPRLPRPRPRPLQVPRP
- shrunken log2 fold change: 0.109

Sequence: RRIRPRPPRLPRPRPRPPHWPRP
- shrunken log2 fold change: 0.865

Sequence: RRIRERPPRLPRPRPRPPRIPRP
- shrunken log2 fold change: -0.453

Sequence: RRIRDRPPRLPRPRPRPRRAPRP
- shrunken log2 fold change: 0.691

Sequence: RRIRTRPPRLPRPRPRPMAPPRP
- shrunken log2 fold change: 0.294

Sequence: RRIRFRPPRLPRPRPRPVVIPRP
- shrunken log2 fold change: 0.0715

Sequence: RRIRKRPPRLPRPRPRPFMIPRP
- shrunken log2 fold change: -0.326

Sequence: RRIRNRPPRLPRPRPRPLMYPRP
- shrunken log2 fold change: -0.158

Sequence: RRIRKRPPRLPRPRPRPYCPPRP
- shrunken log2 fold change: 0.0231

Sequence: RRIRFRPPRLPRPRPRPHMCPRP
- shrunken log2 fold change: -1.24

Sequence: RRIRSRPPRLPRPRPRPYIRPRP
- shrunken log2 fold change: -0.0533

Sequence: RRIRRRPPRLPRPRPRPPRMPRP
- shrunken log2 fold change: 0.94

Sequence: RRIRHRPPRLPRPRPRPDTSPRP
- shrunken log2 fold change: -0.0188

Sequence: RRIRPRPPRLPRPRPRPAYPPRP
- shrunken log2 fold change: 0.0124

Sequence: RRIRGRPPRLPRPRPRPKGCPRP
- shrunken log2 fold change: 2.83

Sequence: RRIRFRPPRLPRPRPRPFAPPRP
- shrunken log2 fold change: 0.0349

Sequence: RRIRHRPPRLPRPRPRPSPMPRP
- shrunken log2 fold change: -0.418

Sequence: RRIRQRPPRLPRPRPRPIDFPRP
- shrunken log2 fold change: -0.0381

Sequence: RRIRNRPPRLPRPRPRPEDRPRP
- shrunken log2 fold change: 0.0787

Sequence: RRIRGRPPRLPRPRPRPHLKPRP
- shrunken log2 fold change: 0.378

Sequence: RRIRGRPPRLPRPRPRPADIPRP
- shrunken log2 fold change: -0.229

Sequence: RRIRIRPPRLPRPRPRPSPYPRP
- shrunken log2 fold change: -0.396

Sequence: RRIRLRPPRLPRPRPRPEFKPRP
- shrunken log2 fold change: -0.4

Sequence: RRIRCRPPRLPRPRPRPSMKPRP
- shrunken log2 fold change: -0.567

Sequence: RRIRMRPPRLPRPRPRPGDAPRP
- shrunken log2 fold change: 0.853

Sequence: RRIRVRPPRLPRPRPRPMFKPRP
- shrunken log2 fold change: -0.24

Sequence: RRIRVRPPRLPRPRPRPPHDPRP
- shrunken log2 fold change: 0.65

Sequence: RRIRWRPPRLPRPRPRPRRHPRP
- shrunken log2 fold change: 0.559

Sequence: RRIRFRPPRLPRPRPRPTGVPRP
- shrunken log2 fold change: 0.123

Sequence: RRIRARPPRLPRPRPRPSVCPRP
- shrunken log2 fold change: 0.348

Sequence: RRIRMRPPRLPRPRPRPRIAPRP
- shrunken log2 fold change: 0.786

Sequence: RRIRTRPPRLPRPRPRPHLVPRP
- shrunken log2 fold change: 0.0214

Sequence: RRIRTRPPRLPRPRPRPVRIPRP
- shrunken log2 fold change: -0.0431

Sequence: RRIRTRPPRLPRPRPRPNQGPRP
- shrunken log2 fold change: -0.493

Sequence: RRIRGRPPRLPRPRPRPTVIPRP
- shrunken log2 fold change: 0.107

Sequence: RRIRVRPPRLPRPRPRPNCKPRP
- shrunken log2 fold change: -0.368

Sequence: RRIRFRPPRLPRPRPRPDGFPRP
- shrunken log2 fold change: 0.015

Sequence: RRIRIRPPRLPRPRPRPPAYPRP
- shrunken log2 fold change: -0.384

Sequence: RRIRFRPPRLPRPRPRPLWQPRP
- shrunken log2 fold change: -0.308

Sequence: RRIRYRPPRLPRPRPRPSRVPRP
- shrunken log2 fold change: -0.115

Sequence: RRIRRRPPRLPRPRPRPNHCPRP
- shrunken log2 fold change: -0.142

Sequence: RRIRCRPPRLPRPRPRPYMQPRP
- shrunken log2 fold change: -0.918

Sequence: RRIRVRPPRLPRPRPRPGVRPRP
- shrunken log2 fold change: 0.188

Sequence: RRIRDRPPRLPRPRPRPYGIPRP
- shrunken log2 fold change: -0.00973

Sequence: RRIRDRPPRLPRPRPRPRSRPRP
- shrunken log2 fold change: 0.00639

Sequence: RRIRMRPPRLPRPRPRPLYCPRP
- shrunken log2 fold change: -0.396

Sequence: RRIRYRPPRLPRPRPRPEVIPRP
- shrunken log2 fold change: -0.01

Sequence: RRIRMRPPRLPRPRPRPKRPPRP
- shrunken log2 fold change: 0.85

Sequence: RRIRSRPPRLPRPRPRPKFWPRP
- shrunken log2 fold change: 0.759

Sequence: RRIRVRPPRLPRPRPRPMFEPRP
- shrunken log2 fold change: 0.0774

Sequence: RRIRRRPPRLPRPRPRPIRHPRP
- shrunken log2 fold change: 0.307

Sequence: RRIRMRPPRLPRPRPRPFWVPRP
- shrunken log2 fold change: -0.0112

Sequence: RRIRRRPPRLPRPRPRPSNRPRP
- shrunken log2 fold change: -0.0253

Sequence: RRIRARPPRLPRPRPRPETFPRP
- shrunken log2 fold change: -0.0526

Sequence: RRIRYRPPRLPRPRPRPKHRPRP
- shrunken log2 fold change: 0.0727

Sequence: RRIRIRPPRLPRPRPRPHGMPRP
- shrunken log2 fold change: 0.0429

Sequence: RRIRHRPPRLPRPRPRPAETPRP
- shrunken log2 fold change: -0.074

Sequence: RRIRLRPPRLPRPRPRPVTWPRP
- shrunken log2 fold change: -0.0276

Sequence: RRIRSRPPRLPRPRPRPAPWPRP
- shrunken log2 fold change: 0.528

Sequence: RRIRHRPPRLPRPRPRPYPTPRP
- shrunken log2 fold change: -0.219

Sequence: RRIRKRPPRLPRPRPRPLKSPRP
- shrunken log2 fold change: 0.713

Sequence: RRIRSRPPRLPRPRPRPGIGPRP
- shrunken log2 fold change: 1.62

Sequence: RRIRMRPPRLPRPRPRPHYDPRP
- shrunken log2 fold change: -0.135

Sequence: RRIRTRPPRLPRPRPRPKMMPRP
- shrunken log2 fold change: 0.332

Sequence: RRIRGRPPRLPRPRPRPIYMPRP
- shrunken log2 fold change: -0.191

Sequence: RRIRVRPPRLPRPRPRPPYDPRP
- shrunken log2 fold change: -0.0602

Sequence: RRIRHRPPRLPRPRPRPIHPPRP
- shrunken log2 fold change: -0.154

Sequence: RRIRRRPPRLPRPRPRPPHWPRP
- shrunken log2 fold change: 0.932

Sequence: RRIRDRPPRLPRPRPRPKQSPRP
- shrunken log2 fold change: 0.00791

Sequence: RRIRVRPPRLPRPRPRPCIYPRP
- shrunken log2 fold change: -0.533

Sequence: RRIRHRPPRLPRPRPRPVYHPRP
- shrunken log2 fold change: -0.282

Sequence: RRIRVRPPRLPRPRPRPTVDPRP
- shrunken log2 fold change: 0.177

Sequence: RRIRWRPPRLPRPRPRPYQFPRP
- shrunken log2 fold change: -0.00205

Sequence: RRIRLRPPRLPRPRPRPQLKPRP
- shrunken log2 fold change: -0.0336

Sequence: RRIRKRPPRLPRPRPRPMMEPRP
- shrunken log2 fold change: -0.00277

Sequence: RRIRIRPPRLPRPRPRPGDGPRP
- shrunken log2 fold change: 0.281

Sequence: RRIRNRPPRLPRPRPRPDYIPRP
- shrunken log2 fold change: -0.104

Sequence: RRIRDRPPRLPRPRPRPCFHPRP
- shrunken log2 fold change: -0.336

Sequence: RRIRDRPPRLPRPRPRPEPLPRP
- shrunken log2 fold change: 0.0701

Sequence: RRIRWRPPRLPRPRPRPNLWPRP
- shrunken log2 fold change: 0.587

Sequence: RRIRFRPPRLPRPRPRPNFSPRP
- shrunken log2 fold change: -0.283

Sequence: RRIRRRPPRLPRPRPRPCVEPRP
- shrunken log2 fold change: -0.0155

Sequence: RRIRPRPPRLPRPRPRPDSCPRP
- shrunken log2 fold change: 0.0412

Sequence: RRIRARPPRLPRPRPRPIIRPRP
- shrunken log2 fold change: -0.357

Sequence: RRIRCRPPRLPRPRPRPSEHPRP
- shrunken log2 fold change: -0.236

Sequence: RRIRQRPPRLPRPRPRPVGWPRP
- shrunken log2 fold change: 0.72

Sequence: RRIRLRPPRLPRPRPRPIEKPRP
- shrunken log2 fold change: 0.000506

Sequence: RRIRYRPPRLPRPRPRPSELPRP
- shrunken log2 fold change: -0.0343

Sequence: RRIRNRPPRLPRPRPRPCVMPRP
- shrunken log2 fold change: 0.0192

Sequence: RRIRERPPRLPRPRPRPNSTPRP
- shrunken log2 fold change: -0.495

Sequence: RRIRIRPPRLPRPRPRPCEIPRP
- shrunken log2 fold change: -0.0178

Sequence: RRIRDRPPRLPRPRPRPIPSPRP
- shrunken log2 fold change: 0.0554

Sequence: RRIRGRPPRLPRPRPRPYTEPRP
- shrunken log2 fold change: -0.0586

Sequence: RRIRIRPPRLPRPRPRPKCQPRP
- shrunken log2 fold change: -0.00871

Sequence: RRIRKRPPRLPRPRPRPPMCPRP
- shrunken log2 fold change: 0.389

Sequence: RRIRLRPPRLPRPRPRPYECPRP
- shrunken log2 fold change: -0.352

Sequence: RRIRSRPPRLPRPRPRPESCPRP
- shrunken log2 fold change: 0.181

Sequence: RRIRFRPPRLPRPRPRPHLCPRP
- shrunken log2 fold change: -0.0692

Sequence: RRIRQRPPRLPRPRPRPVGKPRP
- shrunken log2 fold change: -0.14

Sequence: RRIRMRPPRLPRPRPRPHELPRP
- shrunken log2 fold change: 0.627

Sequence: RRIRDRPPRLPRPRPRPCYWPRP
- shrunken log2 fold change: 0.00776

Sequence: RRIRQRPPRLPRPRPRPDIPPRP
- shrunken log2 fold change: -0.811

Sequence: RRIRLRPPRLPRPRPRPKMVPRP
- shrunken log2 fold change: -0.146

Sequence: RRIRFRPPRLPRPRPRPVHEPRP
- shrunken log2 fold change: -0.0618

Sequence: RRIRKRPPRLPRPRPRPFRYPRP
- shrunken log2 fold change: -0.0832

Sequence: RRIRTRPPRLPRPRPRPPVKPRP
- shrunken log2 fold change: 0.385

Sequence: RRIRERPPRLPRPRPRPIGKPRP
- shrunken log2 fold change: 0.133

Sequence: RRIRCRPPRLPRPRPRPPCVPRP
- shrunken log2 fold change: 0.0597

Sequence: RRIRRRPPRLPRPRPRPLGHPRP
- shrunken log2 fold change: 0.203

Sequence: RRIRDRPPRLPRPRPRPYTEPRP
- shrunken log2 fold change: -0.0346

Sequence: RRIRVRPPRLPRPRPRPVPWPRP
- shrunken log2 fold change: 0.0916
